From patent US20250144207A1, “COMBINATION THERAPY COMPRISING ANTI-CCR9 ANTIBODY AND VINCRISTINE FOR CANCER” (SUNROCK BIOPHARMA S.L., priority 2022, published 2025)

T1: CCR9 (Homo sapiens, UniProt P51686)
T1 sequence (P51686 1-369): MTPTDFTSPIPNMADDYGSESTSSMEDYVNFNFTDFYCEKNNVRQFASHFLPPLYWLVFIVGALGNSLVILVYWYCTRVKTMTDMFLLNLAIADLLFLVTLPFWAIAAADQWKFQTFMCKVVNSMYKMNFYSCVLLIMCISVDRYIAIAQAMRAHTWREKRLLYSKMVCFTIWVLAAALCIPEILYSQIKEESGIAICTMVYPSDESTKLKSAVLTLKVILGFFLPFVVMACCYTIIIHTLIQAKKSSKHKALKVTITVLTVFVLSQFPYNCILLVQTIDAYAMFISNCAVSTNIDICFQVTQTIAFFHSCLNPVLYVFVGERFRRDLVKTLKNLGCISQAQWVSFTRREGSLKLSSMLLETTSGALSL

T2: CCR9 (C-C chemokine receptor type 9) (human, UniProt P51686 1-369, limits assumed)
T2 construct: also called human chemokine receptor CCR9
T2 sequence (looked up): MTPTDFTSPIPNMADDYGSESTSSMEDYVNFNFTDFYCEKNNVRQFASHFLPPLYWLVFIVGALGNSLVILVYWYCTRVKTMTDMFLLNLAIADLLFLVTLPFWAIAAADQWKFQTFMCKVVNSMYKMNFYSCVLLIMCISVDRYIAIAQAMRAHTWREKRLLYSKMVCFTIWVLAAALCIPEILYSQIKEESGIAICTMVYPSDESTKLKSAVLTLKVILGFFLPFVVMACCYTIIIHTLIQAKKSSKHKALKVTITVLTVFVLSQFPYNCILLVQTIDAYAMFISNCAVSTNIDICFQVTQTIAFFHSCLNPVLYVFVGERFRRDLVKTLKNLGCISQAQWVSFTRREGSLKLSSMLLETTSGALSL

B1: SRB1 anti-CCR9 antibody (antibody, V domains shown)
VH: EVQLVESGGGLVKPGGSLRLSCAASGFTFSKFWMNWVRQAPGKGLEWVGEIRLKSNNYATHYAESVKGRFTISRDDSKNTLYLQMNSLKTEDTAVYYCTSDGWFAYWGQGTLVTVSS
VL: DVQMTQSPSSLSASVGDRVTITCRSSQSLVHSNGNTYLNWYQQKPGKAPKLLIYKVSNRFSGVPSRFSGSGSGTDFTLTISSLQPEDFATYYCSQSTHFPRTFGGGTKVEIK
notes: also called CCR9-targeted antibody (SRB1)

Columns and labels:
MOLT4-GFP xenografts = assay: Survival of NSG mice with MOLT4-GFP xenografts, SRB1 combined with chemotherapy agents; format: in vivo; details: for Median survival: NSG mice, MOLT4-GFP i.v., SRB1 or isotype 4 mg/kg i.p. x4 weekly, vincristine 0.6 mg/kg i.v. day 5, dexamethasone 50 μg/mouse/dose days 5-9; for # censored subjects / # deaths: same survival study, 10 animals/group
CCR9 = target: T1, CCR9; assay: CCR9 binding in the presence of CCL25, measured by flow cytometry
From the text: Therefore, like “91R” and “92R”, the “SRB1” is preferred for use in the treatment of a condition in which CCL25 concentration may be elevated, including in the treatment of certain cancers as described in detail herein.

[1] = target: T2, CCR9 (C-C chemokine receptor type 9); assay: CCR9 binding in the presence of CCL25; no protocol given
CCR9+ lymphocyte = assay: Antibody mediated complement-dependent cytotoxicity (CDC); format: cell-based
From the text: The present inventors have, for example, observed antibody mediated complement-dependent cytotoxicity (CDC) utilizing anti-CCR9 antibodies such as “91R”, “92R” and “SRB1” described above.

Row | Molecule | Median survival (MOLT4-GFP xenografts) [days] | # censored subjects (MOLT4-GFP xenografts) | # deaths (MOLT4-GFP xenografts) | CCR9 binding in the presence of the ligand CCL25 (CCR9) | survival, given as IC50 (MOLT4-GFP xenografts; SRB1 at 4 mg/kg vs Control (48 days)) [days] | binding result [1] | complement-dependent cytotoxicity (CDC) (CCR9+ lymphocyte)
1 | C[C@@H]1C[C@H]2[C@@H]3CCC4=CC(=O)C=C[C@]4(C)[C@@]3(F)[C@@H](O)C[C@]2(C)[C@@]1(O)C(=O)CO [DX, dexamethasone] | 47.7 | 10 | 10 |  |  |  | 
2 | CC[C@]1(O)C[C@H]2CN(CCc3c([nH]c4ccccc34)[C@@](C(=O)OC)(c3cc4c(cc3OC)N(C=O)[C@H]3[C@@](O)(C(=O)OC)[C@H](OC(C)=O)[C@]5(CC)C=CCN6CC[C@]43[C@@H]65)C2)C1 [VX, vincristine] | 67.9 | 10 | 10 |  |  |  | 
3 | B1 | 66.2 | 10 | 10 | exhibit CCR9 binding in the presence of CCL25 | 70 | binds | observed
